Laboratory results: patent US20110003886, “SELECTION OF RNA APTAMERS AS ANTI-MALARIA AGENTS” (FORSKARPATENT I SYD AB, published 2011)

B1: e05 (ssRNA)
RNA: GGGAAUUCGAGCUCGGUACCCUUCGAACGGCCCUGGUUGUUGGUUUUAAUUCAUUUAUCCGCGUGGUCACGGUCGUAGCAAGCUCUGCAGUCG
modifications: 2'-F on all pyrimidines (C and U) [positions count without the 20-nt 5-prime fixed region]

Assays:
[1] = system: GST-DBL1alpha (PfEMP1 DBL1alpha) (Plasmodium falciparum); assay: competition; conditions: 2'-F on all pyrimidines (C and U) [positions count without the 20-nt 5-prime fixed region], 30-fold molar excess unlabelled RNA
[2] = system: DBL1alpha-His (PfEMP1 Duffy binding-like domain 1alpha, strain FCR3S1.2) (Plasmodium falciparum); assay: pulldown; conditions: 2'-F on all pyrimidines (C and U) [positions count without the 20-nt 5-prime fixed region], 40 nM RNA, 350-400 nM protein, Ni-NTA beads, PBSM, yeast RNA, 37 C, RNA assayed as 90 nt with 2x20 nt flanks
[3] = system: PfEMP1 on FCR3S1.2-infected erythrocytes (Plasmodium falciparum); assay: cell_activity; conditions: 2'-F on all pyrimidines (C and U) [positions count without the 20-nt 5-prime fixed region]; rosette rate about 35% of control at 258 nM; 1 mM MgCl2
BSA = BSA (UniProt P02769 P02769:25-607); assay: EMSA; 10 ug BSA negative control; conditions: label: 32P; complex secondary structure predicted by mfold
Sequence of BSA (P02769 25-607, one chain of several): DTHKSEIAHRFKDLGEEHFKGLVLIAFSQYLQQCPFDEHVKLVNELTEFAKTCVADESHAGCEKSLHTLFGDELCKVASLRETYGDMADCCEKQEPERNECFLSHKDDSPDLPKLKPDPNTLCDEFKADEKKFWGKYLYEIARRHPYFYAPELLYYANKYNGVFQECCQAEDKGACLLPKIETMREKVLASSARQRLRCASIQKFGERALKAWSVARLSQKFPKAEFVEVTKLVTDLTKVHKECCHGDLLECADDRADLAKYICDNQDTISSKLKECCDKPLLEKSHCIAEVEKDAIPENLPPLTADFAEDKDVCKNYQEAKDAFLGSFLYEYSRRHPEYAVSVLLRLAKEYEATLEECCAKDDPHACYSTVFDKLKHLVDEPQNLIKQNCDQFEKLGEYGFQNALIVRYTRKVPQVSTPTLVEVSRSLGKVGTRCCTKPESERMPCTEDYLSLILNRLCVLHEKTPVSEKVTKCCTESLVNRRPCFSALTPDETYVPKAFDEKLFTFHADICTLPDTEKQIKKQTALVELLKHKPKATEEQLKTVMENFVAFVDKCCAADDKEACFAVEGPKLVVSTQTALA
Description: To study RNA/DBL1α^His interaction in solution a number of EMSA experiments were conducted. The protein used for these experiments was freshly eluted from the Ni-NTA beads to avoid long storage and freezing in solution to prevent precipitation of DBL1α^His The RNA was internally labelled with ³²P-ATP and migration after incubation with DBL1α^His or BSA was analysed on 10% native polyacrylamide gel. The upper band (177 nucleotide long RNA) seen in FIG. 4 is an incorrect product of the T7 transcription that is derived from a longer transcription template. This template is a product generated in the previous PCR reaction (binding of PCR primer to en external T7 site in the TOPO-vector). […] Throughout the EMSA experiments conducted, no real band shift was observed (RNA molecule bound to protein with slower migration).
FIG. 5. Mobility shift assay of selected clone e05. ˜30 ng internal ³²P-[αATP] labelled RNA was incubated with ˜300-400 ng DBL1α^His for 10 min. and loaded on 10% TBE-buffered PAA gel (+) together with negative control (−) incubated in the presence of 10 μg BSA.

Row | Molecule | binding signal (% decrease of labelled RNA recovery) ([1]; 60% decrease at 45-fold, no decrease with 30-fold e02 or pool 0) | binding signal (% RNA recovery) ([2]; clone also listed as SEQ 4/10) | activity (nM (complete rosette disruption)) [3] | binding signal (% decrease of labelled RNA recovery) [1] | binding signal (% RNA recovery) ([2]; clone also listed as SEQ 5/11) | binding signal (% RNA recovery) ([2]; clone also listed as SEQ 6/12) | binding result (BSA)
1 | GGGAAUUCGAGCUCGGUACCUGCCAACCUUCGAUGCAAGAUAAUACUUUUGAUGGUGUAGUCGUAUUGUUCGUAGCAAGCUCUGCAGUCG [d12] | 40 | 70 | 387 |  |  |  | 
2 | GGGAAUUCGAGCUCGGUACCUCAUGUGCCAGUGUUUGAAAAAACGCGUUGAUUGCUGGUGUGGUGAGCUAGUCGUAGCAAGCUCUGCAGUCG |  |  | 387 | 40 | 70 |  | 
3 | GGGAAUUCGAGCUCGGUACCCUUCGAACGGCCCUGGUUGUUGGUUUUAAUUCAUUUAUCCGCGUGGUCACGGUCGUAGCAAGCUCUGCAGUCG [e05] |  |  | 387 | 40 |  | 70 | 
4 | B1 |  |  |  |  |  |  | no binding
